Measurements as given in PMC2756588.

Each binder was assayed against Bem1-1, P29366 (assay: SPOT array). Details: median of control spots 4282.
Chain of Bem1-1, P29366 (P29366 55-141): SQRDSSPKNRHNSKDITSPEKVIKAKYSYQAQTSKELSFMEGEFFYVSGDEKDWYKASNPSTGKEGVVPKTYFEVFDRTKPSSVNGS

Binder	SPOT intensity
FIRKRAPTPPAPSRS	0
KIRRSSLMIPNPQQF	0
IKTRSVPKIPSIESV	3
HVRRSILALPLGVLL	0
RTIRKLPLMSLSEYF	0
NRARYLPQNPDIIAG	0

The binders below were run against T1, Bud14, P27637 (assay: SPOT array). Details: median of control spots 956.
T1 sequence (P27637 247-328, looked up): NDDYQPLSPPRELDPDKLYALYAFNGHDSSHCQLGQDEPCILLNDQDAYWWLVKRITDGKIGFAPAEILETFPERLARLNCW

Binder	SPOT intensity
FIRKRAPTPPAPSRS	10
KIRRSSLMIPNPQQF	5
IKTRSVPKIPSIESV	2
HVRRSILALPLGVLL	14
RTIRKLPLMSLSEYF	6
NRARYLPQNPDIIAG	11

What follows are binders tested against T2, Fus1, P11710 (assay: SPOT array). Details: median of control spots 1200.
T2 sequence (P11710 432-512, looked up): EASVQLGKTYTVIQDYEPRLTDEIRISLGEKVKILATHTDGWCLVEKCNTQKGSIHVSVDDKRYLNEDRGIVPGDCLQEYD

Binder	SPOT intensity
FIRKRAPTPPAPSRS	13
KIRRSSLMIPNPQQF	21
IKTRSVPKIPSIESV	0
HVRRSILALPLGVLL	16
RTIRKLPLMSLSEYF	24
NRARYLPQNPDIIAG	0

What follows are binders tested against T3, Hse1, P38753 (assay: SPOT array). Details: median of control spots 1727.
T3 sequence (P38753 208-285, looked up): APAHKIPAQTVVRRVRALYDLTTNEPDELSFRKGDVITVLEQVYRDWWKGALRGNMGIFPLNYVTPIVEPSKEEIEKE

Binder	SPOT intensity
FIRKRAPTPPAPSRS	76
KIRRSSLMIPNPQQF	1
IKTRSVPKIPSIESV	0
HVRRSILALPLGVLL	0
RTIRKLPLMSLSEYF	2
NRARYLPQNPDIIAG	3

What follows are binders tested against T4, Boi2, P39969 (assay: SPOT array). Details: median of control spots 1161.
T4 sequence (P39969 32-116, looked up): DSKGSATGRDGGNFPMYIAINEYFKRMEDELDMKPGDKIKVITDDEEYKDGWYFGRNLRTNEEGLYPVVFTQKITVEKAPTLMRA

Binder	SPOT intensity
FIRKRAPTPPAPSRS	0
KIRRSSLMIPNPQQF	1
IKTRSVPKIPSIESV	1
HVRRSILALPLGVLL	1
RTIRKLPLMSLSEYF	0
NRARYLPQNPDIIAG	0

What follows are binders tested against T5, Boi1, P38041 (assay: SPOT array). Details: median of control spots 1162.
T5 sequence (P38041 1-86, looked up): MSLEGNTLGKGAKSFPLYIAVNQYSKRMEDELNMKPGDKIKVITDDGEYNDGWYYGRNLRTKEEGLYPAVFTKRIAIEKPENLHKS

Binder	SPOT intensity
FIRKRAPTPPAPSRS	3
KIRRSSLMIPNPQQF	2
IKTRSVPKIPSIESV	1
HVRRSILALPLGVLL	3
RTIRKLPLMSLSEYF	1
NRARYLPQNPDIIAG	3

Each binder was assayed against T6, Lsb4, P32793 (assay: SPOT array). Details: median of control spots 397.
T6 sequence (P32793 402-468, looked up): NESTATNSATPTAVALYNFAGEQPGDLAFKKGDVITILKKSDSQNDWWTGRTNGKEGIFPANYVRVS

Binder	SPOT intensity
FIRKRAPTPPAPSRS	26
KIRRSSLMIPNPQQF	3
IKTRSVPKIPSIESV	166
HVRRSILALPLGVLL	4
RTIRKLPLMSLSEYF	2
NRARYLPQNPDIIAG	0

The binders below were run against Bem1-2, P29366 (assay: SPOT array). Details: median of control spots 4347.
Chain of Bem1-2, P29366 (P29366 139-227): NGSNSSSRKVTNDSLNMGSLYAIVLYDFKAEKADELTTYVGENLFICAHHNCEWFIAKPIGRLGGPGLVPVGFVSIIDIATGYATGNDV

Binder	SPOT intensity
FIRKRAPTPPAPSRS	800
KIRRSSLMIPNPQQF	3
IKTRSVPKIPSIESV	0
HVRRSILALPLGVLL	0
RTIRKLPLMSLSEYF	0
NRARYLPQNPDIIAG	0

Each binder was assayed against T7, Abp1, P15891 (assay: SPOT array). Details: median of control spots 935.
T7 sequence (P15891 535-592, looked up): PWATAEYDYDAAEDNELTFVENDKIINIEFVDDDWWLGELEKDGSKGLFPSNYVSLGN

Binder	SPOT intensity
FIRKRAPTPPAPSRS	259
KIRRSSLMIPNPQQF	105
IKTRSVPKIPSIESV	9
HVRRSILALPLGVLL	23
RTIRKLPLMSLSEYF	13
NRARYLPQNPDIIAG	5

What follows are binders tested against T8, Bzz1-1, P38822 (assay: SPOT array). Details: median of control spots 4446.
T8 sequence (P38822 478-572, looked up): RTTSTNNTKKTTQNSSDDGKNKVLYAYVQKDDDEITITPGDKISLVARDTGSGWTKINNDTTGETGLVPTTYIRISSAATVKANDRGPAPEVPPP

Binder	SPOT intensity
FIRKRAPTPPAPSRS	52
KIRRSSLMIPNPQQF	1
IKTRSVPKIPSIESV	2
HVRRSILALPLGVLL	0
RTIRKLPLMSLSEYF	2
NRARYLPQNPDIIAG	0

What follows are binders tested against T9, Bbc1, P47068 (assay: SPOT array). Details: median of control spots 796.
T9 sequence (P47068 1-78, looked up): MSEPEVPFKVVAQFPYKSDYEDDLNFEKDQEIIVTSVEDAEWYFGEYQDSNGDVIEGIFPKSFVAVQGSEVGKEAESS

Binder	SPOT intensity
FIRKRAPTPPAPSRS	68
KIRRSSLMIPNPQQF	13
IKTRSVPKIPSIESV	10
HVRRSILALPLGVLL	1
RTIRKLPLMSLSEYF	3
NRARYLPQNPDIIAG	2

The binders below were run against T10, Cyk3, Q07533 (assay: SPOT array). Details: median of control spots 1451.
T10 sequence (Q07533 1-83, looked up): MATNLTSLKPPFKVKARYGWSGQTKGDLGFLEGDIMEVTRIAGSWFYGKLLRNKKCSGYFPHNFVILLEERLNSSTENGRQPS

Binder	SPOT intensity
FIRKRAPTPPAPSRS	2
KIRRSSLMIPNPQQF	2
IKTRSVPKIPSIESV	0
HVRRSILALPLGVLL	2
RTIRKLPLMSLSEYF	1
NRARYLPQNPDIIAG	0

What follows are binders tested against T11, Pin3, Q06449 (assay: SPOT array). Details: median of control spots 2171.
T11 sequence (Q06449 53-122, looked up): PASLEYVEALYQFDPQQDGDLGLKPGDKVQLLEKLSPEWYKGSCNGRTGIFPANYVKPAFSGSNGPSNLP

Binder	SPOT intensity
FIRKRAPTPPAPSRS	26
KIRRSSLMIPNPQQF	142
IKTRSVPKIPSIESV	15
HVRRSILALPLGVLL	2
RTIRKLPLMSLSEYF	27
NRARYLPQNPDIIAG	2

The binders below were run against GST (assay: SPOT array). Details: median of control spots 978.

Binder	SPOT intensity
FIRKRAPTPPAPSRS	0
KIRRSSLMIPNPQQF	3
IKTRSVPKIPSIESV	0
HVRRSILALPLGVLL	0
RTIRKLPLMSLSEYF	0
NRARYLPQNPDIIAG	0

These binders were tested against Rvs167, P39743 (assay: SPOT array). Details: median of control spots 2707.
Chain of Rvs167, P39743 (P39743 419-482): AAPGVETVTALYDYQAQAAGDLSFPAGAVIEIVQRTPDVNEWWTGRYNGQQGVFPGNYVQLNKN

Binder	SPOT intensity
FIRKRAPTPPAPSRS	4
KIRRSSLMIPNPQQF	0
IKTRSVPKIPSIESV	1340
HVRRSILALPLGVLL	2
RTIRKLPLMSLSEYF	0
NRARYLPQNPDIIAG	0

These binders were tested against T12, Lsb3, P43603 (assay: SPOT array). Details: median of control spots 406.
T12 sequence (P43603 385-451, looked up): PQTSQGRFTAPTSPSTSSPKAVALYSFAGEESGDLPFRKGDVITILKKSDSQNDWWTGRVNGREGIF

Binder	SPOT intensity
FIRKRAPTPPAPSRS	18
KIRRSSLMIPNPQQF	14
IKTRSVPKIPSIESV	257
HVRRSILALPLGVLL	0
RTIRKLPLMSLSEYF	3
NRARYLPQNPDIIAG	1

What follows are binders tested against T13, Hof1, Q05080 (assay: SPOT array). Details: median of control spots 4086.
T13 sequence (Q05080 590-669, looked up): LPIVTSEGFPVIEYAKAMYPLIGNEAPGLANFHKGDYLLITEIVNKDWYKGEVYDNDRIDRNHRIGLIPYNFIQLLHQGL

Binder	SPOT intensity
FIRKRAPTPPAPSRS	6
KIRRSSLMIPNPQQF	0
IKTRSVPKIPSIESV	38
HVRRSILALPLGVLL	0
RTIRKLPLMSLSEYF	20
NRARYLPQNPDIIAG	4

The binders below were run against T14, Pex13, P80667 (assay: SPOT array). Details: median of control spots 1341.
T14 sequence (P80667 295-386, looked up): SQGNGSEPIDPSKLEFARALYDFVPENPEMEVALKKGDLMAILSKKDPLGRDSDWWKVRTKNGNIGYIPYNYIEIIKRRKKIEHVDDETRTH

Binder	SPOT intensity
FIRKRAPTPPAPSRS	27
KIRRSSLMIPNPQQF	30
IKTRSVPKIPSIESV	32
HVRRSILALPLGVLL	3
RTIRKLPLMSLSEYF	12
NRARYLPQNPDIIAG	0

Each binder was assayed against Sho1, P40073 (assay: SPOT array). Details: median of control spots 1148.
Chain of Sho1, P40073 (P40073 287-367): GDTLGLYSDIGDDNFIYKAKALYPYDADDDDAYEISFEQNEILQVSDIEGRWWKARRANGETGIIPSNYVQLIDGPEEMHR

Binder	SPOT intensity
FIRKRAPTPPAPSRS	90
KIRRSSLMIPNPQQF	47
IKTRSVPKIPSIESV	4
HVRRSILALPLGVLL	35
RTIRKLPLMSLSEYF	6
NRARYLPQNPDIIAG	10

What follows are binders tested against T15, Myo5, Q04439 (assay: SPOT array). Details: median of control spots 471.
T15 sequence (Q04439 1072-1160, looked up): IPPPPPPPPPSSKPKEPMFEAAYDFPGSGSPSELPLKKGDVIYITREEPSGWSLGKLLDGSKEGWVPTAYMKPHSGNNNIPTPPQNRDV

Binder	SPOT intensity
FIRKRAPTPPAPSRS	4
KIRRSSLMIPNPQQF	11
IKTRSVPKIPSIESV	0
HVRRSILALPLGVLL	1
RTIRKLPLMSLSEYF	1
NRARYLPQNPDIIAG	0

These binders were tested against T16, Lsb1, P53281 (assay: SPOT array). Details: median of control spots 388.
T16 sequence (P53281 45-122, looked up): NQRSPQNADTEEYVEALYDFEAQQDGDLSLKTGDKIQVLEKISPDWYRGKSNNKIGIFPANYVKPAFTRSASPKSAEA

Binder	SPOT intensity
FIRKRAPTPPAPSRS	1190
KIRRSSLMIPNPQQF	12
IKTRSVPKIPSIESV	266
HVRRSILALPLGVLL	47
RTIRKLPLMSLSEYF	15
NRARYLPQNPDIIAG	1

What follows are binders tested against T17, Nbp2, Q12163 (assay: SPOT array). Details: median of control spots 357.
T17 sequence (Q12163 103-180, looked up): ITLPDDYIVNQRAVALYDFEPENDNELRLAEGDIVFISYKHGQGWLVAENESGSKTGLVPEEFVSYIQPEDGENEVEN

Binder	SPOT intensity
FIRKRAPTPPAPSRS	219
KIRRSSLMIPNPQQF	0
IKTRSVPKIPSIESV	12
HVRRSILALPLGVLL	0
RTIRKLPLMSLSEYF	1
NRARYLPQNPDIIAG	1

What follows are binders tested against Myo3, P36006 (assay: SPOT array). Details: median of control spots 468.

Binder	SPOT intensity
FIRKRAPTPPAPSRS	35
KIRRSSLMIPNPQQF	35
IKTRSVPKIPSIESV	5
HVRRSILALPLGVLL	3
RTIRKLPLMSLSEYF	3
NRARYLPQNPDIIAG	0

Each binder was assayed against T18, Cdc25, P04821 (assay: SPOT array). Details: median of control spots 969.
T18 sequence (P04821 50-136, looked up): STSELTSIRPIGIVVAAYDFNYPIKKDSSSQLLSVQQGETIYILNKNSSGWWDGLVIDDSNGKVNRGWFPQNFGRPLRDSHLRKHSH

Binder	SPOT intensity
FIRKRAPTPPAPSRS	43
KIRRSSLMIPNPQQF	12
IKTRSVPKIPSIESV	2
HVRRSILALPLGVLL	20
RTIRKLPLMSLSEYF	6
NRARYLPQNPDIIAG	9

What follows are binders tested against T19, Sla1-3, P32790 (assay: SPOT array). Details: median of control spots 5475.
T19 sequence (P32790 344-424, looked up): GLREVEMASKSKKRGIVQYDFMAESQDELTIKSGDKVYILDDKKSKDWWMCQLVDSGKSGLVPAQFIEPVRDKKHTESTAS

Binder	SPOT intensity
FIRKRAPTPPAPSRS	155
KIRRSSLMIPNPQQF	9
IKTRSVPKIPSIESV	6
HVRRSILALPLGVLL	0
RTIRKLPLMSLSEYF	19
NRARYLPQNPDIIAG	11

These binders were tested against T20, Sla1-2, P32790 (assay: SPOT array). Details: median of control spots 712.
T20 sequence (P32790 60-140, looked up): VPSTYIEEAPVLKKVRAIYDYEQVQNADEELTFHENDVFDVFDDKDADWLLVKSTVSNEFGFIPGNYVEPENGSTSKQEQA

Binder	SPOT intensity
FIRKRAPTPPAPSRS	0
KIRRSSLMIPNPQQF	4
IKTRSVPKIPSIESV	1
HVRRSILALPLGVLL	0
RTIRKLPLMSLSEYF	1
NRARYLPQNPDIIAG	0

Each binder was assayed against T21, Bzz1-2, P38822 (assay: SPOT array). Details: median of control spots 4538.
T21 sequence (P38822 568-633, looked up): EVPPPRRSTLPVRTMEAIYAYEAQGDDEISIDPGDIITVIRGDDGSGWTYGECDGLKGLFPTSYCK

Binder	SPOT intensity
FIRKRAPTPPAPSRS	522
KIRRSSLMIPNPQQF	0
IKTRSVPKIPSIESV	2
HVRRSILALPLGVLL	0
RTIRKLPLMSLSEYF	0
NRARYLPQNPDIIAG	0
